Data: patent US20190270815A1 (WUXI BIOLOGICS IRELAND, published 2019)

Legend:
[1] = target: T1, murine PD-1 (Sino biological) (murine, UniProt Q02242 25-167, limits assumed); test: ELISA on plate-coated murine PD-1
T1 sequence (looked up): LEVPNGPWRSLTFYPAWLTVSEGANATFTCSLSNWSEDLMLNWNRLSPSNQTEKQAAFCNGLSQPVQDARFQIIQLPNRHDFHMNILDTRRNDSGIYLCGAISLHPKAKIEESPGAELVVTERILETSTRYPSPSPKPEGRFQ
Experimental: 3.3.1 Cross-reactivity to cynomolgus PD-1 and murine PD-1: Cross-reactivity was measured by ELISA. Plates (Nunc) were coated with cynomolgus PD-1 (Sino Biological) and murine PD-1 (Sino biological) at 1 μg/ml overnight at 4° C. After blocking and washing, […] antibodies were added to the plates and incubated at room temperature for 1 h. The plates were then washed and subsequently incubated with secondary antibody goat anti rat IgG1 HRP (Bethyl) and goat anti rat IgG2b HRP (Bethyl) for 45 min. After washing, TMB substrate was added and the interaction was stopped by 2M HCl. The absorbance at 450 nm was read using a microplate reader (Molecular Device).

[2] = target: T2, hPD-1 ECD-His point mutant A 50 (to glycine) (human, UniProt Q15116 25-170); test: ELISA, antibody coated, His-tagged PD-1 mutant supernatant; fold change vs silent alanine substitutions
T2 construct: extracellular domain
T2 sequence (Q15116 other isoform, or with tags, fused parts or gaps mutant): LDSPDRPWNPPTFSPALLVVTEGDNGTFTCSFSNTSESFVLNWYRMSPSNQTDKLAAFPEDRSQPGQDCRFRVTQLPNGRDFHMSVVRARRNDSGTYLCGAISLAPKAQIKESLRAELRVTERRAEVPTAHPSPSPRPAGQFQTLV
Experimental: (§1) After interacting with the supernatant that contains quantified PD-1 mutant, HRP conjugated anti-His antibody (Rockland, Cat#200-303-382) was added as detection antibody. Absorbance was normalized according to the average of control mutants. After setting an additional cutoff to t4he binding fold change (<0.55), the final determined epitope residues were identified.

[3] = target: T3, hPD-1 ECD-His point mutant G 47 (to alanine) (human, UniProt Q15116 25-170); test: as above
T3 construct: extracellular domain
T3 sequence (Q15116 other isoform, or with tags, fused parts or gaps mutant): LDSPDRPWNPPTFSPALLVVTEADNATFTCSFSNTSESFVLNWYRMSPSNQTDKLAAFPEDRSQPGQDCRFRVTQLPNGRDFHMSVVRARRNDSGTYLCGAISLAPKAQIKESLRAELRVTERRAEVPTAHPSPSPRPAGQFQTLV
Experimental: as §1

[4] = target: T4, hPD-1 ECD-His point mutant P 39 (to alanine) (human, UniProt Q15116 25-170); test: as above
T4 construct: extracellular domain
T4 sequence (Q15116 other isoform, or with tags, fused parts or gaps mutant): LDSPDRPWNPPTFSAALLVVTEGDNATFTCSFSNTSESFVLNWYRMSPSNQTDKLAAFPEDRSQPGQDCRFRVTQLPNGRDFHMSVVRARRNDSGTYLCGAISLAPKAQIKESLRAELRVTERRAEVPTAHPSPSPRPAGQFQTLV
Experimental: as §1

[5] = target: T5, hPD-1 ECD-His point mutant I 126 (to alanine) (human, UniProt Q15116 25-170); test: as above
T5 construct: extracellular domain
T5 sequence (Q15116 other isoform, or with tags, fused parts or gaps mutant): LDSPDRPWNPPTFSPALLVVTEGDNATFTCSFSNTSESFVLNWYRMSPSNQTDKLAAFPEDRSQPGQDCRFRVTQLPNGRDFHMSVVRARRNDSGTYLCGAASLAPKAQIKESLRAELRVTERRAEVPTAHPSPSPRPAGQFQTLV
Experimental: as §1

[6] = target: T6, hPD-1 ECD-His point mutant A 113 (to glycine) (human, UniProt Q15116 25-170); test: as above
T6 construct: extracellular domain
T6 sequence (Q15116 other isoform, or with tags, fused parts or gaps mutant): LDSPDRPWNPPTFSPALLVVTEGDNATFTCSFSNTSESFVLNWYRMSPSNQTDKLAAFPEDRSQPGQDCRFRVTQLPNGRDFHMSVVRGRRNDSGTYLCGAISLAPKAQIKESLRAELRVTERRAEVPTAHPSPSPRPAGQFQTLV
Experimental: as §1

[7] = target: T7, hPD-1 ECD-His point mutant M 108 (to alanine) (human, UniProt Q15116 25-170); test: as above
T7 construct: extracellular domain
T7 sequence (Q15116 other isoform, or with tags, fused parts or gaps mutant): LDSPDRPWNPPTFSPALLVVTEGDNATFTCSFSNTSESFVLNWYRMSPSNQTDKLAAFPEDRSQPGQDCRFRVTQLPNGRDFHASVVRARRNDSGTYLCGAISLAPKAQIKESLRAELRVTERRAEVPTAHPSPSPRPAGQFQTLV
Experimental: as §1

[8] = target: T8, hPD-1 ECD-His point mutant S 137 (to alanine) (human, UniProt Q15116 25-170); test: as above
T8 construct: extracellular domain
T8 sequence (Q15116 other isoform, or with tags, fused parts or gaps mutant): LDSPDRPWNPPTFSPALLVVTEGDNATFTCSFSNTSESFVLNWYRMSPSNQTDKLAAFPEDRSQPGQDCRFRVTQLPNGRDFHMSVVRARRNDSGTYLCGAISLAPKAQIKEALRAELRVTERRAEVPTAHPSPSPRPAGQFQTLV
Experimental: as §1

[9] = target: T9, hPD-1 ECD-His point mutant N 49 (to alanine) (human, UniProt Q15116 25-170); test: as above
T9 construct: extracellular domain
T9 sequence (Q15116 other isoform, or with tags, fused parts or gaps mutant): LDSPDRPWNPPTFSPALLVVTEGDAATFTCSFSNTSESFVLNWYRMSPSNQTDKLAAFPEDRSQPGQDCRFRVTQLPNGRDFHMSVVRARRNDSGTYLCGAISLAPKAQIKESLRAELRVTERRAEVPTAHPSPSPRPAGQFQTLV
Experimental: as §1

[10] = target: T10, hPD-1 ECD-His point mutant A 132 (to glycine) (human, UniProt Q15116 25-170); test: as above
T10 construct: extracellular domain
T10 sequence (Q15116 other isoform, or with tags, fused parts or gaps mutant): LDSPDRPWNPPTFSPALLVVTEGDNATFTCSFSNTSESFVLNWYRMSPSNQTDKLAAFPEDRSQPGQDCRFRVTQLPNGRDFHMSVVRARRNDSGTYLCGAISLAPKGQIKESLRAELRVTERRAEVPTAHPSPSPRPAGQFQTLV
Experimental: as §1

[11] = target: T11, hPD-1 ECD-His point mutant D 117 (to alanine) (human, UniProt Q15116 25-170); test: as above
T11 construct: extracellular domain
T11 sequence (Q15116 other isoform, or with tags, fused parts or gaps mutant): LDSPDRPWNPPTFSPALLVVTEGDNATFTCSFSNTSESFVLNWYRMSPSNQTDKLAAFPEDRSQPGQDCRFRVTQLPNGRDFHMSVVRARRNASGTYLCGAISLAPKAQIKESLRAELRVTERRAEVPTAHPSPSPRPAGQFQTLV
Experimental: as §1

- fold change [2]: 0.73
- fold change [3]: 0.77
- fold change [4]: 0.55
- fold change [5]: 0.64
- fold change [6]: 0.73
- fold change [7]: 0.56
- fold change [8]: 0.62
- fold change [9]: 0.73
- fold change [10]: 0.53
- fold change [11]: 0.73
B1: 1.103.11 hAb (antibody, V domains shown)
VH: QLQLQESGPGLVKPSETLTLTCTVSADSISSTTYYWVWIRQPPGKGLEWIGSISYSGSTYYNPSLKSRVTVSVDTSKNQFSLKLNSVAATDTALYYCARHLGYNGRYLPFDYWGQGTLVTVSS
VL: QSALTQPASVSGSPGQSITISCTGTSSDVGFYNYVSWYQQHPGKAPELMIYDVSNRPSGVSDRFSGSKSGNTASLTISGLQAEDEADYYCSSYTNISTWVFGGGTKLTVL
notes: fully human monoclonal antibody with a human constant region of IgG4 isotype
- binding result [1]: no binding (tested: 1 g/ml antibodies (so in the source))
